B1: HEEH_KT_rd6_0790 (parent)
chain: SEEEEEEWRRAKERGEEIIILGILWKPNDEEAERRIKEALRRV
B2: EEHEE_rd4_0647 (parent)
chain: MQVTWGNVTVTFSNPEEAKKYAEKVARKLGGQVELHNGQFRIK

Variants of: B1
Assay: folding stability dG (cDNA display proteolysis); higher = more stable
Conditions: PBS, room temperature

Going from E7V to E7T, the “folding stability dG” value falls from 2.09 kcal/mol to 2 kcal/mol.

Going from E7K to E7I, the “folding stability dG” value falls from 2.9 kcal/mol to 2.36 kcal/mol.

First: E7Q
Second: E7L
The “folding stability dG” value of the first is lower: 2.44 kcal/mol for the first, 2.65 kcal/mol for the second.

First: E7D
Second: E7P
The “folding stability dG” value of the first is higher: 1.99 kcal/mol for the first, 1.32 kcal/mol for the second.

Going from E7G to E4V, the “folding stability dG” value rises from 1.81 kcal/mol to 2.71 kcal/mol.

First: E4T
Second: E4L
The “folding stability dG” value of the first is lower: 2.29 kcal/mol for the first, 3.4 kcal/mol for the second.

Compared with E4G, E4W is higher in “folding stability dG” value: 2.04 kcal/mol for the first, 3.35 kcal/mol for the second.

Going from E4A to E4S, the “folding stability dG” value falls from 2.68 kcal/mol to 2.21 kcal/mol.

Compared with E4Q, E4F is higher in “folding stability dG” value: 2.2 kcal/mol for the first, 2.78 kcal/mol for the second.

Compared with E4Y, E4H is lower in “folding stability dG” value: 2.93 kcal/mol for the first, 2.41 kcal/mol for the second.

Going from E4P to E4N, the “folding stability dG” value falls from 2.5 kcal/mol to 1.94 kcal/mol.

First: E4M
Second: E4I
The “folding stability dG” value of the first is lower: 2.82 kcal/mol for the first, 3.14 kcal/mol for the second.

First: E4R
Second: E4D
The “folding stability dG” value of the first is lower: 2.03 kcal/mol for the first, 2.17 kcal/mol for the second.

In the case of E4K, the “folding stability dG” value is reported as 1.92 kcal/mol.

Variants of: B2
Assay: as above
Conditions: PBS, room temperature

Going from V25Y to V25H, the “folding stability dG” value falls from 1.48 kcal/mol to 1.01 kcal/mol.

Compared with V25S, V25A is higher in “folding stability dG” value: 0.981 kcal/mol for the first, 1.61 kcal/mol for the second.

Compared with V25T, V25M is higher in “folding stability dG” value: 1.93 kcal/mol for the first, 2.95 kcal/mol for the second.

Compared with V25L, G6L is lower in “folding stability dG” value: 2.95 kcal/mol for the first, 2.49 kcal/mol for the second.

First: E23H
Second: E23G
The “folding stability dG” value of the first is higher: 2.69 kcal/mol for the first, 1.86 kcal/mol for the second.

First: E23Y
Second: N37G
The “folding stability dG” value of the first is higher: 3.15 kcal/mol for the first, 2.32 kcal/mol for the second.

Going from N37R to N37S, the “folding stability dG” value rises from 1.92 kcal/mol to 1.93 kcal/mol.

First: N37Y
Second: V33N
The “folding stability dG” value of the first is higher: 1.7 kcal/mol for the first, 0.506 kcal/mol for the second.

Compared with R41P, R41L is higher in “folding stability dG” value: 0.495 kcal/mol for the first, 3.16 kcal/mol for the second.

Compared with R41W, R41T is lower in “folding stability dG” value: 3.15 kcal/mol for the first, 2.84 kcal/mol for the second.

Going from Q39V to Q39K, the “folding stability dG” value falls from 2.99 kcal/mol to 2.43 kcal/mol.

First: N14K
Second: N14I
The “folding stability dG” value of the first is higher: 2.42 kcal/mol for the first, 2.08 kcal/mol for the second.

Compared with N14M, N14R is higher in “folding stability dG” value: 1.99 kcal/mol for the first, 2.47 kcal/mol for the second.

Going from N14G to T9P, the “folding stability dG” value falls from 2.12 kcal/mol to 0.422 kcal/mol.

First: T9W
Second: V10Y
The “folding stability dG” value of the first is lower: 1.78 kcal/mol for the first, 2.7 kcal/mol for the second.

First: V10G
Second: V10N
The “folding stability dG” value of the first is lower: 0.582 kcal/mol for the first, 1.2 kcal/mol for the second.

Going from V10P to V10W, the “folding stability dG” value rises from -0.399 kcal/mol to 2.84 kcal/mol.

Going from G30V to G30C, the “folding stability dG” value rises from 1.45 kcal/mol to 3.02 kcal/mol.

First: G30T
Second: G30R
The “folding stability dG” value of the first is lower: 1.34 kcal/mol for the first, 2.41 kcal/mol for the second.

First: F40Q
Second: F40G
The “folding stability dG” value of the first is higher: 0.812 kcal/mol for the first, 0.325 kcal/mol for the second.

First: F40C
Second: F40A
The “folding stability dG” value of the first is higher: 1.51 kcal/mol for the first, 0.89 kcal/mol for the second.

Going from F40S to T4G, the “folding stability dG” value rises from 0.308 kcal/mol to 1.46 kcal/mol.

Going from T4N to G38W, the “folding stability dG” value falls from 2.18 kcal/mol to 1.24 kcal/mol.

First: G38I
Second: W5D
The “folding stability dG” value of the first is lower: 0.887 kcal/mol for the first, 1.03 kcal/mol for the second.

Compared with W5R, E34Y is higher in “folding stability dG” value: 0.966 kcal/mol for the first, 2.78 kcal/mol for the second.

Going from E34T to E34H, the “folding stability dG” value falls from 2.44 kcal/mol to 2.17 kcal/mol.

Compared with E34L, Q2V is higher in “folding stability dG” value: 2.21 kcal/mol for the first, 2.86 kcal/mol for the second.

Compared with Q2P, Q2H is higher in “folding stability dG” value: 1.45 kcal/mol for the first, 2.3 kcal/mol for the second.

First: Q2F
Second: T11W
The “folding stability dG” value of the first is lower: 2.16 kcal/mol for the first, 3.23 kcal/mol for the second.

First: T11Y
Second: A26G
The “folding stability dG” value of the first is higher: 3.02 kcal/mol for the first, 1.38 kcal/mol for the second.

First: A26Y
Second: A26K
The “folding stability dG” value of the first is lower: 0.807 kcal/mol for the first, 0.937 kcal/mol for the second.

First: K24E
Second: K24W
The “folding stability dG” value of the first is lower: 2.83 kcal/mol for the first, 3.27 kcal/mol for the second.

First: K24T
Second: K24R
The “folding stability dG” value of the first is lower: 2.61 kcal/mol for the first, 2.88 kcal/mol for the second.

First: K19V
Second: K19P
The “folding stability dG” value of the first is higher: 2.08 kcal/mol for the first, 0.106 kcal/mol for the second.

Going from M1S to M1K, the “folding stability dG” value falls from 2.61 kcal/mol to 2.27 kcal/mol.

Going from M1Q to V8D, the “folding stability dG” value falls from 2.03 kcal/mol to 1.33 kcal/mol.

First: K43A
Second: K43G
The “folding stability dG” value of the first is higher: 2.57 kcal/mol for the first, 2.04 kcal/mol for the second.

Compared with V3C, V3Y is lower in “folding stability dG” value: 1.8 kcal/mol for the first, 0.842 kcal/mol for the second.

Going from F12V to F12H, the “folding stability dG” value falls from 0.887 kcal/mol to 0.464 kcal/mol.

Going from F12M to F12L, the “folding stability dG” value rises from 1.38 kcal/mol to 1.96 kcal/mol.

First: A18I
Second: A18H
The “folding stability dG” value of the first is higher: 0.86 kcal/mol for the first, 0.323 kcal/mol for the second.

First: A18Q
Second: S13N
The “folding stability dG” value of the first is lower: 0.42 kcal/mol for the first, 2.79 kcal/mol for the second.

Going from S13M to Y21D, the “folding stability dG” value falls from 2.6 kcal/mol to -0.099 kcal/mol.

Going from Y21A to Y21L, the “folding stability dG” value rises from 1.3 kcal/mol to 1.74 kcal/mol.

Compared with E17D, E17K is lower in “folding stability dG” value: 2.92 kcal/mol for the first, 2.69 kcal/mol for the second.

Compared with E17H, E17P is lower in “folding stability dG” value: 2.7 kcal/mol for the first, 1.01 kcal/mol for the second.

Going from A22W to A22N, the “folding stability dG” value falls from 1.04 kcal/mol to 0.101 kcal/mol.

Compared with A22I, A22K is lower in “folding stability dG” value: 1.43 kcal/mol for the first, 0.426 kcal/mol for the second.

Compared with E16M, E16Y is higher in “folding stability dG” value: 2.76 kcal/mol for the first, 2.77 kcal/mol for the second.

First: K28Y
Second: K28V
The “folding stability dG” value of the first is higher: 2.97 kcal/mol for the first, 2.87 kcal/mol for the second.

Going from K28G to K28I, the “folding stability dG” value rises from 2.01 kcal/mol to 3.18 kcal/mol.

Going from K28P to K28R, the “folding stability dG” value rises from 0.676 kcal/mol to 2.98 kcal/mol.

First: K28H
Second: Q32H
The “folding stability dG” value of the first is higher: 2.9 kcal/mol for the first, 2.89 kcal/mol for the second.

Going from Q32G to Q32T, the “folding stability dG” value rises from 1.77 kcal/mol to 3.35 kcal/mol.

Going from H36M to H36F, the “folding stability dG” value rises from 2.68 kcal/mol to 2.79 kcal/mol.

First: H36L
Second: H36T
The “folding stability dG” value of the first is higher: 2.89 kcal/mol for the first, 2.6 kcal/mol for the second.

First: R27T
Second: R27Q
The “folding stability dG” value of the first is lower: 2.31 kcal/mol for the first, 2.64 kcal/mol for the second.

Compared with P15C, P15S is lower in “folding stability dG” value: 3.26 kcal/mol for the first, 2.79 kcal/mol for the second.

First: P15A
Second: G31M
The “folding stability dG” value of the first is higher: 2.89 kcal/mol for the first, 2.53 kcal/mol for the second.

Compared with G31W, G31Q is lower in “folding stability dG” value: 2.39 kcal/mol for the first, 1.87 kcal/mol for the second.

Compared with G31R, G31A is higher in “folding stability dG” value: 1.8 kcal/mol for the first, 2.62 kcal/mol for the second.

Compared with L35E, L35Q is lower in “folding stability dG” value: 2.5 kcal/mol for the first, 2.28 kcal/mol for the second.

Compared with L35M, L35T is lower in “folding stability dG” value: 2.82 kcal/mol for the first, 2.24 kcal/mol for the second.

Compared with L29D, L29A is higher in “folding stability dG” value: 0.761 kcal/mol for the first, 1.76 kcal/mol for the second.

Compared with L29Q, L29F is higher in “folding stability dG” value: 1.58 kcal/mol for the first, 2.66 kcal/mol for the second.

Going from I42Y to I42R, the “folding stability dG” value falls from 0.752 kcal/mol to 0.514 kcal/mol.

Going from I42A to I42L, the “folding stability dG” value rises from 0.487 kcal/mol to 1.09 kcal/mol.

Going from K20G to K20A, the “folding stability dG” value rises from 2.13 kcal/mol to 2.98 kcal/mol.

Compared with K20V, K20M is higher in “folding stability dG” value: 2.71 kcal/mol for the first, 2.75 kcal/mol for the second.

Compared with K20I, K20Y is lower in “folding stability dG” value: 2.77 kcal/mol for the first, 2.43 kcal/mol for the second.
